Where a chain is given by its changes, count along the chain named. Read-outs that look alike come from different tables or passages of the source. Each block holds one binder with its values, some of them ahead of it.
Key:
[1] = molecular target: T1, human SIRPβ1 domain 1 (D1) Fc fusion (human, UniProt O00241 30-148); assay: Octet, Fab monovalent
T1 construct: Made in HEK293/T cells with a heterologous signal peptide; also called Human SIRPβ1 D1-Fc; Human SIRPβ1-Fc; not shown: C-terminal human IgG1 Fc
T1 sequence (O00241 30-148 limits assumed): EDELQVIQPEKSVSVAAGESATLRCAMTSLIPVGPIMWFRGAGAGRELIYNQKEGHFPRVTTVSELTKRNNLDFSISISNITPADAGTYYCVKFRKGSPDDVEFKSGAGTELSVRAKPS

Human SIRPβ HIS = molecular target: T2, Human SIRPβ HIS (human, UniProt O00241 30-148, limits assumed); assay: MSD-SET, Fab monovalent
T2 construct: detected with streptavidin, so biotinylated; also called recombinant human SIRPβ1; human SIRPβ1 monomer
T2 sequence (O00241 30-148 limits assumed): as above

[2] = molecular target: T3, human SIRPβ1 isoform 1 on cells (human, UniProt O00241 30-398); assay: cell binding titration; target not given
T3 construct: On CHO cells (low level), on BWZ/BW5147.G.1.4 cells (reporter cells co-express human DAP12) or on primary human myeloid cells; also called huSIRPβ1; BWZ-huSIRPβ1
T3 sequence (O00241 30-398): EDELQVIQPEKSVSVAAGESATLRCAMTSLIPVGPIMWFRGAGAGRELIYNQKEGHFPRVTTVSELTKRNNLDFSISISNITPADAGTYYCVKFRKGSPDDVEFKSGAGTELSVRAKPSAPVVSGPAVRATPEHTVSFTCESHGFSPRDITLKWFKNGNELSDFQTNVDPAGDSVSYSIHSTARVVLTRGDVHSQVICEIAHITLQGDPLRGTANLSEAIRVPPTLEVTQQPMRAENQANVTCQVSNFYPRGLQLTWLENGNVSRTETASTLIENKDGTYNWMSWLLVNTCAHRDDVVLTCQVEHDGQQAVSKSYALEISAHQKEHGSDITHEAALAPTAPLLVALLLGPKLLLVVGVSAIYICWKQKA

[3] = molecular target: T1, human SIRPβ1 domain 1 (D1) Fc fusion; assay: Octet, IgG avid
[4] = molecular target: T4, Soluble, human SIRPβ1-Fc isoform 1 (O00241) (human, UniProt O00241 30-371, limits assumed); assay: ELISA, antigen coated
T4 construct: Whole entry named; also called human SIRPβ1 isoform 1
T4 sequence (O00241 30-371 limits assumed, one chain of several): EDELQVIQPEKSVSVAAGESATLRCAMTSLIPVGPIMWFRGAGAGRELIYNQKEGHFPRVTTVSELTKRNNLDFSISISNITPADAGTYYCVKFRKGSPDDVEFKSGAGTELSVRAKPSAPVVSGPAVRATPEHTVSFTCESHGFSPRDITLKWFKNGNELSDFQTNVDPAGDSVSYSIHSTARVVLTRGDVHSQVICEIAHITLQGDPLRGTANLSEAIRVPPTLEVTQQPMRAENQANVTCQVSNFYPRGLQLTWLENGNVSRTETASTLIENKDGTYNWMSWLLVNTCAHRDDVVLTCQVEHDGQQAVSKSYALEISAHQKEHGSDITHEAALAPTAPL
Excerpt: Recombinant antigen based on the sequence of SIRPβ1 isoform 1 was used for selecting anti-SIRPβ1 antibodies from yeast library pools. To ascertain if the selected anti-SIRPβ1 antibodies cross-reacted with other isoforms of human SIRPβ1 or with cynomolgus SIRPβ1, recombinant antigens based on human SIRPβ1 isoform 3 sequence and cynomolgus SIRPβ1 isoform 1 sequence were produced by transient transfection in HEK293 cells. Purified, Fc-tagged recombinant proteins were adsorbed onto 96-well plates at 1 μg/mL overnight at 4° C. Plates were subsequently washed with PBS+0.05% Tween-20 and blocked with 1% BSA+PBS for 2 hours at room temperature. Antibodies diluted in blocking buffer at 1 μg/mL were added to wells, serially diluted, and allowed to bind antigen overnight at 4° C. The following day, the primary antibodies were removed and anti-human kappa light chain antibody conjugated to horseradish peroxidase diluted 1:10,000 in blocking buffer were added to wells and incubated for 1 hour at room temperature. Plates were washed with PBS+0.05% Tween-20 and 100 μL of TMB substrate solution was added to wells to generate a colorimetric signal proportional to amount of anti-SIRPβ1 antibody bound to antigen. Once the reaction reached an appropriate color intensity, 100 μL of Stop solution was added to quench the enzyme.
Eight anti-SIRPβ1 antibodies (four parental antibodies and four corresponding affinity matured antibodies) were selected for analysis.

mouse SIRPα D1-Fc = molecular target: T5, mouse SIRPα D1-Fc (mouse, UniProt P97797 32-150, limits assumed); assay: Octet
T5 construct: domain: D1
T5 sequence (looked up): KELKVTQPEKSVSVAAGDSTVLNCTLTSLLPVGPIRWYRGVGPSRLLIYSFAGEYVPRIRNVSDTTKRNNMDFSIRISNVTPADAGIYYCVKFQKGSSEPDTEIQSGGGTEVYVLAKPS
Description: Briefly, Octet affinity measurements were performed by loading IgGs on-line onto AHQ sensors. Sensors were equilibrated off-line in assay buffer for 30 min and then monitored on-line for 60 seconds for baseline establishment. For avid binding measurement, sensors with loaded IgGs were exposed to 100 nM antigen (human SIRPα domain 1 (D1) Fc fusion or SIRPβ1 domain 1 (D1) Fc fusion) for 3 min, and then transferred to assay buffer for 3 min for off-rate measurement. Additional avid binding was determined by loading biotinylated SIRPβ1 monomer on SA sensors and exposing to 100 nM IgG in solution. Monovalent binding measurements were obtained by loading human SIRPα- or SIRPβ1-Fc fusion antigens onto AHQ sensor, followed by exposure to 100 nM anti-SIRPβ1 antibody Fab. Additional monovalent measurements were made by loading biotinylated human SIRPα or SIRPβ1 monomer to SA sensor followed by exposure to 100 nM Fab in solution. Kinetics data were fit using a 1:1 binding model in the data analysis software provided by ForteBio (ForteBio Data Analysis Software 7.0).

[5] = molecular target: T6, mouse SIRPβ1 on CHO cells (mouse); assay: flow cytometry
T6 construct: Whole entry
T6 chain: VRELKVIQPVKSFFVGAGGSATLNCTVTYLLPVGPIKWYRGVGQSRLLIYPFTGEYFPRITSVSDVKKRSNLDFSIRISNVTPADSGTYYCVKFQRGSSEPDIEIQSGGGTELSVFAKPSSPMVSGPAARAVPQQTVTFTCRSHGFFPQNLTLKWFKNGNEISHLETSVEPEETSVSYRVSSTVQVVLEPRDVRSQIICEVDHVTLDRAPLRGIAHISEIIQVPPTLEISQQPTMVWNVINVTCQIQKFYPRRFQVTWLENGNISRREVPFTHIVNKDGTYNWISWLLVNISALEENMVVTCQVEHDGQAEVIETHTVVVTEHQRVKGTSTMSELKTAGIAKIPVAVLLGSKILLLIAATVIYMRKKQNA

[6] = molecular target: T3, human SIRPβ1 isoform 1 on cells; assay: flow cytometry
mouse SIRPα on cells [7] = molecular target: T7, mouse SIRPα on cells (mouse, UniProt P97797 32-513); assay: flow cytometry;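 for FOB: antibodies tested at 1 µg/ml for 30 min on ice against receptor-expressing cells, detected with a PE-labelled secondary antibody, read as mean fluorescence intensity relative to background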
T7 construct: whole, on cells
T7 sequence (looked up): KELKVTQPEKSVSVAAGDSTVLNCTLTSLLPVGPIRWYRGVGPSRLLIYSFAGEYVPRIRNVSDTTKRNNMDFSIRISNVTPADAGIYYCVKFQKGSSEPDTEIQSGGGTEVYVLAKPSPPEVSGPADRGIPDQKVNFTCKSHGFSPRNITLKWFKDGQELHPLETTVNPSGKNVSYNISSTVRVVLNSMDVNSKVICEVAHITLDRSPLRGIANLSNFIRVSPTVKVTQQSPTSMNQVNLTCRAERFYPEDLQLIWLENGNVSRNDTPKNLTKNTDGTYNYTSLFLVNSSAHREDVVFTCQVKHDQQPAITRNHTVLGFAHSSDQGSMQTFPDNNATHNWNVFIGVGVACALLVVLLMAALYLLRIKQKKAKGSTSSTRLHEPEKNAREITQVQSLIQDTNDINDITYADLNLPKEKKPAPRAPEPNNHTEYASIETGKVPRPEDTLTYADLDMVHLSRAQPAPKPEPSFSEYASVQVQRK

human SIRPα on cells [8] = molecular target: T8, human SIRPα on cells (human, UniProt P78324 31-504); assay: flow cytometry
T8 construct: Whole entry

[9] = molecular target: T6, mouse SIRPβ1 on CHO cells; assay: flow cytometry
[10] = molecular target: T3, human SIRPβ1 isoform 1 on cells; assay: flow cytometry; remark: listed apart in the source
human SIRPα on cells [11] = molecular target: T8, human SIRPα on cells; assay: flow cytometry; remark: listed apart in the source
[12] = molecular target: T9, human SIRPα domain 1 (D1) Fc fusion (human, UniProt P78324 32-149); assay: Octet, IgG avid
T9 construct: also called human SIRPα D1-Fc; Human SIRPα Fc; not shown: C-terminal human IgG1 Fc

[13] = molecular target: T6, mouse SIRPβ1 on CHO cells; assay: flow cytometry
mouse SIRPα on cells [14] = molecular target: T7, mouse SIRPα on cells; assay: flow cytometry; remark: listed apart in the source;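 for FOB: antibodies tested at 1 µg/ml for 30 min on ice against receptor-expressing cells, detected with a PE-labelled secondary antibody, read as mean fluorescence intensity relative to background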
human SIRPα on cells [15] = molecular target: T8, human SIRPα on cells; assay: flow cytometry; remark: listed apart in the source
[16] = molecular target: T10, human SIRPβ1-Fc isoform 3 (Q5TFQ8) (human, UniProt Q5TFQ8 30-371, limits assumed); assay: ELISA on plate-coated huSirpB-Fc (Q5TFQ8.1), anti-human kappa-HRP, A450
T10 construct: Whole entry named; made in HEK293 cells; also called human SIRPβ1 isoform 3
T10 sequence (Q5TFQ8 30-371 limits assumed, one chain of several): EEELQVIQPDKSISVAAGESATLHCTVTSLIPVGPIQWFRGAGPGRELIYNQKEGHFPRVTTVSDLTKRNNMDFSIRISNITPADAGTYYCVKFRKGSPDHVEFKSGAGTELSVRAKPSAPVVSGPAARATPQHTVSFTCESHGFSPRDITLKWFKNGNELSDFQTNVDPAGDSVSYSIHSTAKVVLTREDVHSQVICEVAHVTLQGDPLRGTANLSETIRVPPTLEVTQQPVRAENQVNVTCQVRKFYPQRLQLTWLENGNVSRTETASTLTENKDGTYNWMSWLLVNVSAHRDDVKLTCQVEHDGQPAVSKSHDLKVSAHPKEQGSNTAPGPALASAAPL
Excerpt: Among the multiple SIRPβ1 isoforms catalogued, isoform 1 is the full-length version of the receptor primarily expressed in the periphery. Recombinant antigen based on the sequence of SIRPβ1 isoform 1 was used for selecting anti-SIRPβ1 antibodies from yeast library pools. To ascertain if the selected anti-SIRPβ1 antibodies cross-reacted with other isoforms of human SIRPβ1 or with cynomolgus SIRPβ1, recombinant antigens based on human SIRPβ1 isoform 3 sequence and cynomolgus SIRPβ1 isoform 1 sequence were produced by transient transfection in HEK293 cells. Purified, Fc-tagged recombinant proteins were adsorbed onto 96-well plates at 1 μg/mL overnight at 4° C. Plates were subsequently washed with PBS+0.05% Tween-20 and blocked with 1% BSA+PBS for 2 hours at room temperature. Antibodies diluted in blocking buffer at 1 μg/mL were added to wells, serially diluted, and allowed to bind antigen overnight at 4° C. The following day, the primary antibodies were removed and anti-human kappa light chain antibody conjugated to horseradish peroxidase diluted 1:10,000 in blocking buffer were added to wells and incubated for 1 hour at room temperature. Plates were washed with PBS+0.05% Tween-20 and 100 μL of TMB substrate solution was added to wells to generate a colorimetric signal proportional to amount of anti-SIRPβ1 antibody bound to antigen. […]

B1: SB-8-13 Fab (Fab, V domains shown)
VH: QVQLQESGPGLVKPSETLSLTCAVSGYSISAHYYWGWIRQPPGKGLEWIGSIFHSGHTYYNPSLKSRVTISVDTSKNQFSLKLSSVTAADTAVYYCARGGAMTPAGMDVWGQGTTVTVSS
VL: EIVMTQSPGTLSLSPGERATLSCRASQSVSSSYLAWYQQKPGQAPRLLIYGASNRATGIPDRFSGSGSGTDFTLTISRLEPEDFAVYYCQQVYSSPYTFGGGTKVEIK
notes: Fab by papain digestion
- Kd [1]: 2.85 nM
- Kd (Human SIRPβ HIS): 0.063 nM

B2: SB-8-14 Fab (Fab, V domains shown)
VH: B1 VH with A31P, F53Y
VL: B1 VL
notes: Fab by papain digestion
- Kd [1]: 3.25 nM
- Kd (Human SIRPβ HIS): 0.053 nM

B3: SB-8-15 Fab (Fab, V domains shown)
VH: B1 VH with F53Y, H54Q
VL: B1 VL
notes: Fab by papain digestion
- Kd [1]: 3.73 nM
- Kd (Human SIRPβ HIS): 0.048 nM

The remaining lines, values ahead:

- Kd [1]: 2.32 nM
- Kd (Human SIRPβ HIS): 0.055 nM
B4: SB-8-16 Fab (Fab, V domains shown)
VH: B1 VH with G99A
VL: B1 VL
notes: Fab by papain digestion

- EC50 [2]: 0.707 nM
- Kd [3]: 9.64 nM
- EC50 [4]: 0.04 nM
- binding result (mouse SIRPα D1-Fc): no binding (tested: 100 nM)
- FOB [5]: 1.1 fold over background
- FOB [6]: 7 fold over background
- FOB (mouse SIRPα on cells [7]): 1.2 fold over background
- FOB (human SIRPα on cells [8]): 2.5 fold over background
- FOB [9]: 1 fold over background
- FOB [10]: 2 fold over background
- FOB (human SIRPα on cells [11]): 1 fold over background
- binding result [12]: no binding (tested: 100 nM)
- binding result [13]: no binding (tested: 1 ug/ml)
- binding result (mouse SIRPα on cells [14]): no binding (tested: 1 ug/ml)
- binding result (human SIRPα on cells [15]): no binding (tested: 1 ug/ml)
- binding result [16]: no binding (tested: 1 ug/mL)
B5: SB-40 (antibody, V domains shown)
VH: QVQLVQSGAEVKKPGASVKVSCKASGYTFTSYYMSWVRQAPGQGLEWMGIINPSGGSTSYAQKFQGRVTMTRDTSTSTVYMELSSLRSEDTAVYYCARDTGEYSYSPHGMDVWGQGTTVTVSS
VL: EIVLTQSPATLSLSPGERATLSCRASQSVSSYLAWYQQKPGQAPRLLIYDSSNRATGIPARFSGSGSGTDFTLTISSLEPEDFAVYYCQQRDEHPPWTFGGGTKVEIK
notes: IgG; also called SB-40 (p)

Source: patent publication US20250026827A1 (Alector, published 2025)
